B1: 110 (protein)
chain: STAIAQEGAAPAAILHPEKWPRPATQRLIDPAVEKRVDALLKQLSVEEKVGQVIQGDIGTITPEDLRKYPLGSILAGGNSGPNGDDRAPPKEWLDLADAFYRVSLEKRPGHTPIPVLFGIDAVHGHGNIGSATIFPHNIALGATRDPELLRRIGEVTAVEMAATGIDWTFAPALSVVRDDRWGRTYEGFSEDPEIVAAYSAAIVEGVQGKFGSKDFMAPGRIVASAKHFLADGGTDQGRDQGDARISEDELIRIHNAGYPPAIDAGVLTVMASFSSWQGIKHHGHKQLLTDVLKGQMGFNGFIVGDWNAHDQVPGCTKFNCPTSLIAGLDMYMAADSWKQLYENTLAQVKDGTIPMARLDDAVRRILRVKVLAGLFEKPAPKDRPGLPGLETLGSPEHRAVGREAVRKSLVLLKNDKGTLPLSPKARVLVAGDGADNIGKQSGGWTISWQGTGNRNDEFPGATSILGGIRDAVADAGGSVEFDVAGQYKTKPDVAIVVFGEEPYAEFQGDVETLEYQPDQKQDLALLKKLKDQGIPVVAVFLSGRPMWVNPELNASDAFVAAWLPGTEGGGVADVLFTDKAGKVQHDFAGKLSYSWPRTAAQTTVNRGDADYNPLFAYGYGLTYKDKSKVGTLPEESGVPAE
B2: 105 (protein)
chain: STAIAQEGAAPAAILHPEKWPRPATQRLIDPAVEKRVDALLKQLSVEEKVGQVIQGDIGTITPEDLRKYPLGSILAGGNSGPNGDDRAPPKEWLDLADAFYRVSLEKRPGHTPIPVLFGIDAVHGHGNIGSATIFPHNIALGATRDPELLRRIGEVTAVEMAATGIDWTFAPALSVVRDDRWGRTYEGFSEDPEIVAAYSAAIVEGVQGKFGSKDFMAPGRIVASAKHFLADGGTDQGRDQGDARISEDELIRIHNAGYPPAIDAGVLTVMASFSSWQGIKHHGHKQLLTDVLKGQMGFNGFIVGDWNAHDQVPGCTKFNCPTSLIAGLDMYMAADSWKQLYENTLAQVKDGTIPMARLDDAVRRILRVKVLAGLFEKPAPKDRPGLPGLETLGSPEHRAVGREAVRKSLVLLKNDKGTLPLSPKARVLVAGDGADNIGKQSGGWTISWQGTGNRNDEFPGATSILGGIRDAVADAGGSVEFDVAGQYKTKPDVAIVVFGEEPYAEFQGDVETLEYQPDQKQDLALLKKLKDQGIPVVAVFLSGRPMWVNPELNASDAFVAAWLPGTEGGGVADVLFTDKAGKVQHDFAGKLSYSWPRTAAQTTVNRGDADYNPLFAYGYGLTYKDKSKVGTLP
B3: 109 (protein)
chain: STAIAQEGAAPAAILHPEKWPRPATQRLIDPAVEKRVDALLKQLSVEEKVGQVIQGDIGTITPEDLRKYPLGSILAGGNSGPNGDDRAPPKEWLDLADAFYRVSLEKRPGHTPIPVLFGIDAVHGHGNIGSATIFPHNIALGATRDPELLRRIGEVTAVEMAATGIDWTFAPALSVVRDDRWGRTYEGFSEDPEIVAAYSAAIVEGVQGKFGSKDFMAPGRIVASAKHFLADGGTDQGRDQGDARISEDELIRIHNAGYPPAIDAGVLTVMASFSSWQGIKHHGHKQLLTDVLKGQMGFNGFIVGDWNAHDQVPGCTKFNCPTSLIAGLDMYMAADSWKQLYENTLAQVKDGTIPMARLDDAVRRILRVKVLAGLFEKPAPKDRPGLPGLETLGSPEHRAVGREAVRKSLVLLKNDKGTLPLSPKARVLVAGDGADNIGKQSGGWTISWQGTGNRNDEFPGATSILGGIRDAVADAGGSVEFDVAGQYKTKPDVAIVVFGEEPYAEFQGDVETLEYQPDQKQDLALLKKLKDQGIPVVAVFLSGRPMWVNPELNASDAFVAAWLPGTEGGGVADVLFTDKAGKVQHDFAGKLSYSWPRTAAQTTVNRGDADYNPLFAYGYGLTYKDKSKVGTLPEESGVPAEARQNAGIYFRAGALRLPGRF
B4: 108 (protein)
chain: STAIAQEGAAPAAILHPEKWPRPATQRLIDPAVEKRVDALLKQLSVEEKVGQVIQGDIGTITPEDLRKYPLGSILAGGNSGPNGDDRAPPKEWLDLADAFYRVSLEKRPGHTPIPVLFGIDAVHGHGNIGSATIFPHNIALGATRDPELLRRIGEVTAVEMAATGIDWTFAPALSVVRDDRWGRTYEGFSEDPEIVAAYSAAIVEGVQGKFGSKDFMAPGRIVASAKHFLADGGTDQGRDQGDARISEDELIRIHNAGYPPAIDAGVLTVMASFSSWQGIKHHGHKQLLTDVLKGQMGFNGFIVGDWNAHDQVPGCTKFNCPTSLIAGLDMYMAADSWKQLYENTLAQVKDGTIPMARLDDAVRRILRVKVLAGLFEKPAPKDRPGLPGLETLGSPEHRAVGREAVRKSLVLLKNDKGTLPLSPKARVLVAGDGADNIGKQSGGWTISWQGTGNRNDEFPGATSILGGIRDAVADAGGSVEFDVAGQYKTKPDVAIVVFGEEPYAEFQGDVETLEYQPDQKQDLALLKKLKDQGIPVVAVFLSGRPMWVNPELNASDAFVAAWLPGTEGGGVADVLFTDKAGKVQHDFAGKLSYSWPRTAAQTTVNRGDADYNPLFAYGYGLTYKDKSKVGTLPEESGVP
B5: 104 (protein)
chain: STAIAQEGAAPAAILHPEKWPRPATQRLIDPAVEKRVDALLKQLSVEEKVGQVIQGDIGTITPEDLRKYPLGSILAGGNSGPNGDDRAPPKEWLDLADAFYRVSLEKRPGHTPIPVLFGIDAVHGHGNIGSATIFPHNIALGATRDPELLRRIGEVTAVEMAATGIDWTFAPALSVVRDDRWGRTYEGFSEDPEIVAAYSAAIVEGVQGKFGSKDFMAPGRIVASAKHFLADGGTDQGRDQGDARISEDELIRIHNAGYPPAIDAGVLTVMASFSSWQGIKHHGHKQLLTDVLKGQMGFNGFIVGDWNAHDQVPGCTKFNCPTSLIAGLDMYMAADSWKQLYENTLAQVKDGTIPMARLDDAVRRILRVKVLAGLFEKPAPKDRPGLPGLETLGSPEHRAVGREAVRKSLVLLKNDKGTLPLSPKARVLVAGDGADNIGKQSGGWTISWQGTGNRNDEFPGATSILGGIRDAVADAGGSVEFDVAGQYKTKPDVAIVVFGEEPYAEFQGDVETLEYQPDQKQDLALLKKLKDQGIPVVAVFLSGRPMWVNPELNASDAFVAAWLPGTEGGGVADVLFTDKAGKVQHDFAGKLSYSWPRTAAQTTVNRGDADYNPLFAYGYGLTYKDKSKVGTLPEESGVPAEARQNAGIY
B6: 111 (protein)
chain: STAIAQEGAAPAAILHPEKWPRPATQRLIDPAVEKRVDALLKQLSVEEKVGQVIQGDIGTITPEDLRKYPLGSILAGGNSGPNGDDRAPPKEWLDLADAFYRVSLEKRPGHTPIPVLFGIDAVHGHGNIGSATIFPHNIALGATRDPELLRRIGEVTAVEMAATGIDWTFAPALSVVRDDRWGRTYEGFSEDPEIVAAYSAAIVEGVQGKFGSKDFMAPGRIVASAKHFLADGGTDQGRDQGDARISEDELIRIHNAGYPPAIDAGVLTVMASFSSWQGIKHHGHKQLLTDVLKGQMGFNGFIVGDWNAHDQVPGCTKFNCPTSLIAGLDMYMAADSWKQLYENTLAQVKDGTIPMARLDDAVRRILRVKVLAGLFEKPAPKDRPGLPGLETLGSPEHRAVGREAVRKSLVLLKNDKGTLPLSPKARVLVAGDGADNIGKQSGGWTISWQGTGNRNDEFPGATSILGGIRDAVADAGGSVEFDVAGQYKTKPDVAIVVFGEEPYAEFQGDVETLEYQPDQKQDLALLKKLKDQGIPVVAVFLSGRPMWVNPELNASDAFVAAWLPGTEGGGVADVLFTDKAGKVQHDFAGKLSYSWPRTAAQTTVNRGDADYNPLFAYGYGLTYKDKSKVGTLPEESGVPAEARQNAGIYFR
B7: 107 (protein)
chain: STAIAQEGAAPAAILHPEKWPRPATQRLIDPAVEKRVDALLKQLSVEEKVGQVIQGDIGTITPEDLRKYPLGSILAGGNSGPNGDDRAPPKEWLDLADAFYRVSLEKRPGHTPIPVLFGIDAVHGHGNIGSATIFPHNIALGATRDPELLRRIGEVTAVEMAATGIDWTFAPALSVVRDDRWGRTYEGFSEDPEIVAAYSAAIVEGVQGKFGSKDFMAPGRIVASAKHFLADGGTDQGRDQGDARISEDELIRIHNAGYPPAIDAGVLTVMASFSSWQGIKHHGHKQLLTDVLKGQMGFNGFIVGDWNAHDQVPGCTKFNCPTSLIAGLDMYMAADSWKQLYENTLAQVKDGTIPMARLDDAVRRILRVKVLAGLFEKPAPKDRPGLPGLETLGSPEHRAVGREAVRKSLVLLKNDKGTLPLSPKARVLVAGDGADNIGKQSGGWTISWQGTGNRNDEFPGATSILGGIRDAVADAGGSVEFDVAGQYKTKPDVAIVVFGEEPYAEFQGDVETLEYQPDQKQDLALLKKLKDQGIPVVAVFLSGRPMWVNPELNASDAFVAAWLPGTEGGGVADVLFTDKAGKVQHDFAGKLSYSWPRTAAQTTVNRGDADYNPLFAYGYGLTYKDKSKVGTLPEESGVPAEAR
B8: 106 (protein)
chain: STAIAQEGAAPAAILHPEKWPRPATQRLIDPAVEKRVDALLKQLSVEEKVGQVIQGDIGTITPEDLRKYPLGSILAGGNSGPNGDDRAPPKEWLDLADAFYRVSLEKRPGHTPIPVLFGIDAVHGHGNIGSATIFPHNIALGATRDPELLRRIGEVTAVEMAATGIDWTFAPALSVVRDDRWGRTYEGFSEDPEIVAAYSAAIVEGVQGKFGSKDFMAPGRIVASAKHFLADGGTDQGRDQGDARISEDELIRIHNAGYPPAIDAGVLTVMASFSSWQGIKHHGHKQLLTDVLKGQMGFNGFIVGDWNAHDQVPGCTKFNCPTSLIAGLDMYMAADSWKQLYENTLAQVKDGTIPMARLDDAVRRILRVKVLAGLFEKPAPKDRPGLPGLETLGSPEHRAVGREAVRKSLVLLKNDKGTLPLSPKARVLVAGDGADNIGKQSGGWTISWQGTGNRNDEFPGATSILGGIRDAVADAGGSVEFDVAGQYKTKPDVAIVVFGEEPYAEFQGDVETLEYQPDQKQDLALLKKLKDQGIPVVAVFLSGRPMWVNPELNASDAFVAAWLPGTEGGGVADVLFTDKAGKVQHDFAGKLSYSWPRTAAQTTVNRGDADYNPLFAYGYGLTYKDKSKVGTLPEE

Eight molecules from patent US8357523B2, “Beta-glucosidase variant enzymes and related polynucleotides” (Codexis, Inc., priority 2009, dated 2013) can be followed below.

The series can be described thus: High throughput cellobiose assay: fold improvement in cellobiase activity of CelA variants over a control enzyme (Tables 2A-2D, 3, 5, 6, 7). The following applies: 3.3 g/l cellobiose, 55° C. and pH 6.0. The series is classed as biochemical.
As to B1, the “Fold improvement over Control Variant No. 5 from Table 2A” value is “++ (++ = 1.1 to 6 fold improvement over control Variant No. 2)”.

On to B2, for which the “Fold improvement over Control Variant No. 5 from Table 2A” value is “++ (++ = 1.1 to 6 fold improvement over control Variant No. 2)”.

On to B3, for which the “Fold improvement over Control Variant No. 5 from Table 2A” value was “++ (++ = 1.1 to 6 fold improvement over control Variant No. 2)”.

Turning to B4, the “Fold improvement over Control Variant No. 5 from Table 2A” value is listed as “++ (++ = 1.1 to 6 fold improvement over control Variant No. 2)”.

With B5, the “Fold improvement over Control Variant No. 5 from Table 2A” value is recorded as “++ (++ = 1.1 to 6 fold improvement over control Variant No. 2)”.

For the molecule B6, the “Fold improvement over Control Variant No. 5 from Table 2A” value is on record as “++ (++ = 1.1 to 6 fold improvement over control Variant No. 2)”.

Turning to B7, the “Fold improvement over Control Variant No. 5 from Table 2A” value is on record as “++ (++ = 1.1 to 6 fold improvement over control Variant No. 2)”.

With B8, the “Fold improvement over Control Variant No. 5 from Table 2A” value is reported as “++ (++ = 1.1 to 6 fold improvement over control Variant No. 2)”.
